{"source": "patent US20150307599A1", "about": "(GARVAN INSTITUTE OF MEDICAL RESEARCH, published 2015)", "key": {"NPY (mouse NPY, Phoenix)": {"target": "T1, NPY (mouse NPY, Phoenix) (mouse, C-terminal amide (-NH2))", "T1 construct": "36-residue whole peptide bought from Phoenix Peptides; also called mNPY; neuropeptide Y", "assay": "BLI (Octet RED96), biotinylated MAb on SA sensors, peptide in solution", "description": "(§1) Affinity of MAb to peptides NPY, mPYY, hPYY, mPP and hPP were measured using an OCTET RED96 system with Octet SA sensors (ForteBio). Briefly, black 96-well plates were prepared with columns containing 200 μL/well of all reagents required for determination of affinity. In general, Octet SA sensors were first placed in wells containing Octet running buffer for 60 seconds to establish a baseline. Sensors were then transferred to wells containing 50 μg/mL biotinylated 5E12-B7 for 480 seconds to load the SA coated tips. Sensors were then regenerated by 3×5 second incubations in Regeneration Buffer (10 mM Glycine, pH 2) followed each time by a 5 second incubation in Octet running buffer. Sensors were then placed in fresh running buffer for 60 seconds to establish a baseline. Association was then measured by incubation the sensors for 10 min in 8 wells containing a serial dilution of peptide (0, 0.33 to 243 nM for NPY and PYY peptides, 0, 9 to 6560 nM for PP peptides). The sensors were then transferred to wells containing Octet running buffer for 15 min to measure dissociation of the peptides. The regeneration step was repeated before measurement of association/dissociation with a different peptide. All peptide measurements were performed in duplicate. The kd, kₐ and KD were determined for each peptide using the accompanying Octet software (Bioforte).\n(§2) Affinity parameters of MAb 5E12-B7 were measured against peptides NPY, mPYY, hPYY, mPP and hPP using an Octet Red system (ForteBio). Streptavadin sensors were loaded with biotinylated MAb 5E12-B7. Association and dissociation rates were measured by incubation of the sensors in wells containing serial dilutions of the peptides, followed by incubation in assay buffer."}, "human PYY (Phoenix)": {"target": "T2, human PYY (Phoenix) (human, C-terminal amide (-NH2))", "T2 construct": "36-residue whole peptide; also called hPYY", "T2 sequence (peptide, as listed by the source)": "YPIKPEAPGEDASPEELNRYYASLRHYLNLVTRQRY", "assay": "BLI (Octet RED96), biotinylated MAb on SA sensors, peptide in solution", "description": "as §1, §2"}}}
{"binder": "MAb 5E12-B7 (antibody, V domains shown, Biotinylated for the Biacore and Octet assays; also called PYY/NPY antibody (5E12); anti-NPY/PYY antibody 5E12) VH: QVQLQHPGTEVVKPGASVKLSCKASGYTFTNYWMHWVKQRPGQGLEWIGNIDPSNGGTNYNEKFKSKATLTVDKSSSTAYMQLSSLTSEDSAVYYCASFAYWGQGTLVTVSA VL: DIQMTQSPASLSASVGETVTITCRASGNIHNYLAWYQQKQGKSPQLLVYNAKTLADGVPSRFSGSGSGTQYSLKISSLRPEDFGSYYCQHFWSPPFTFGSGTKLEIK", "values": [{"measurement": "Kd", "setting": "NPY (mouse NPY, Phoenix)", "result": 4.7, "unit": "nM"}, {"measurement": "koff", "setting": "NPY (mouse NPY, Phoenix)", "result": 0.000429, "unit": "s⁻¹"}, {"measurement": "kon", "setting": "NPY (mouse NPY, Phoenix)", "result": 92600, "unit": "M⁻¹ s⁻¹"}, {"measurement": "Kd", "setting": "human PYY (Phoenix)", "result": 2.17, "unit": "nM"}, {"measurement": "koff", "setting": "human PYY (Phoenix)", "result": 0.000385, "unit": "s⁻¹"}, {"measurement": "kon", "setting": "human PYY (Phoenix)", "result": 179000, "unit": "M⁻¹ s⁻¹"}]}
